Data from patent US20130203661A1 (AEGERION PHARMACEUTICALS, published 2013).
Numbering of substitutions follows the chain as printed.

B1: Seal leptin with N-terminal methionine, and with amino acids 120-141 replaced with amino acids 122-143 (helix 4) of metreleptin (ligand)
chain: MPIQRVQDDTKTLIKTIITRINDISPPQGVCSRPRVAGLDFIPRVQSVRTLSGMDQILATYQQILTSLQSRSVVQIANDLANLRALLRLLASAKSCPVPRARGSDTIKGLGNVLRASVHSTEVVALSRLQGSLQDMLWQLDLNPGC
notes: Seal-human chimeric leptin; also called Compound 44
B2: Seal leptin with N-terminal methionine, with amino acids 23-49 replaced with amino acids 25-51 (AB loop) of metreleptin, and with amino acids 93-119 replaced … (ligand)
chain: MPIQRVQDDTKTLIKTIITRINDISHTQSVSSKQKVTGLDFIPGLHPILTLSGMDQILATYQQILTSLQSRSVVQIANDLANLRALLRLLASAKSCHLPWASGLETLDSLGGVLEASGYSTEVVALSRLKAALQDMLRQLDRNPGC
notes: Seal-human chimeric leptin; also called Compound 47
B3: Seal leptin with N-terminal methionine, and with amino acids 23-49 replaced with amino acids 25-51 (AB loop) of metreleptin (ligand)
chain: MPIQRVQDDTKTLIKTIITRINDISHTQSVSSKQKVTGLDFIPGLHPILTLSGMDQILATYQQILTSLQSRSVVQIANDLANLRALLRLLASAKSCPVPRARGSDTIKGLGNVLRASVHSTEVVALSRLKAALQDMLRQLDRNPGC
notes: Seal-human chimeric leptin; also called Compound 46
B4: Seal leptin with N-terminal methionine, and with amino acids 71-92 replaced with amino acids 73-94 (helix 3) of metreleptin, and with amino acids 23-49 … (ligand)
chain: B3 chain with S72N, V74I, A77S, A81E, A85D, R88H, L89V, S92F, A93S
notes: Seal-human chimeric leptin; also called Compound 51
B5: Seal leptin with N-terminal methionine, with amino acids 23-49 replaced with amino acids 25-51 (AB loop) of metreleptin, and with amino acids 120-141 replaced … (ligand)
chain: B3 chain with K130Q, A131G, A132S, R138W, R142L
notes: Seal-human chimeric leptin; also called Compound 40
B6: Seal leptin with N-terminal methionine, and with amino acids 93-119 replaced with amino acids 95-121 (loop 3-4) of metreleptin (ligand)
chain: MPIQRVQDDTKTLIKTIITRINDISPPQGVCSRPRVAGLDFIPRVQSVRTLSGMDQILATYQQILTSLQSRSVVQIANDLANLRALLRLLASAKSCHLPWASGLETLDSLGGVLEASGYSTEVVALSRLKAALQDMLRQLDRNPGC
notes: Seal-human chimeric leptin; also called Compound 42; Cmpd 42
B7: Seal leptin with N-terminal methionine, and with amino acids 30 and 93-119 replaced with amino acids 32 and 95-121 (loop 3-4) of metreleptin (ligand)
chain: B6 chain with C31S
notes: Seal-human chimeric leptin; also called Compound 49; Cmpd 49
B8: Seal leptin with N-terminal methionine, with amino acids 71-92 replaced with amino acids 73-94 (helix 3) of metreleptin, and with amino acids 93-119 replaced … (ligand)
chain: B6 chain with S72N, V74I, A77S, A81E, A85D, R88H, L89V, S92F, A93S
notes: Seal-human chimeric leptin; also called Compound 50
B9: Seal leptin (ligand)
chain: PIQRVQDDTKTLIKTIITRINDISPPQGVCSRPRVAGLDFIPRVQSVRTLSGMDQILATYQQILTSLQSRSVVQIANDLANLRALLRLLASAKSCPVPRARGSDTIKGLGNVLRASVHSTEVVALSRLKAALQDMLRQLDRNPGC
notes: also called Compound 38; Cmpd 38
B10: Seal leptin with N-terminal methionine, and with amino acids 71-92 replaced with amino acids 73-94 (helix 3) of metreleptin (ligand)
chain: MPIQRVQDDTKTLIKTIITRINDISPPQGVCSRPRVAGLDFIPRVQSVRTLSGMDQILATYQQILTSLQSRNVIQISNDLENLRDLLHVLAFSKSCPVPRARGSDTIKGLGNVLRASVHSTEVVALSRLKAALQDMLRQLDRNPGC
notes: Seal-human chimeric leptin; also called Compound 41; Cmpd 41
B11: Seal leptin with N-terminal methionine, and with amino acids 30 and 71-92 replaced with amino acids 32 and 73-94 (helix 3) of metreleptin (ligand)
chain: B10 chain with C31S
notes: Seal-human chimeric leptin; also called Compound 48; Cmpd 48
B12: Seal leptin with N-terminal methionine, and with amino acids 50-65 replaced with amino acids 52-67 (helix 2) of metreleptin (ligand)
chain: B1 chain with G53K, I57T, T60V, Q130K, G131A, S132A, W138R, L142R
notes: Seal-human chimeric leptin; also called Compound 43
B13: Seal leptin with N-terminal methionine, and with amino acids 3-22 replaced with amino acids 5-24 (helix 1) of metreleptin, and amino acids 72-93 replaced with … (ligand)
chain: B10 chain with R5K, I18V
notes: Seal-human chimeric leptin; also called Compound 45
B14: Seal leptin with N-terminal methionine, and with amino acids 3-22 replaced with amino acids 5-24 (helix 1) of metreleptin (ligand)
chain: B1 chain with R5K, I18V, Q130K, G131A, S132A, W138R, L142R
B15: Seal leptin with N-terminal methionine, with amino acids 23-49 replaced with amino acids 25-51 (AB loop) of metreleptin, with amino acids 93-119 replaced with … (ligand)
chain: B2 chain with S72N, V74I, A77S, A81E, A85D, R88H, L89V, S92F, A93S

Each binder was assayed against T1, chimeric Leptin (Hu)-EPO (Mu) receptor presented by the 32D OBECA cell line (human; murine, UniProt P48357 22-839; P14753 250-507) (assay: Obeca cell binding: displacement of 125I-murine leptin from 32D OBECA cell membranes).
T1 construct: Chimera of human leptin receptor and murine EPO receptor on 32D OBECA / 32D-Keptin cells; 273(29): 18365-18373; also called chimeric Hu-Leptin/Mu-EPO receptor
T1 sequence (looked up): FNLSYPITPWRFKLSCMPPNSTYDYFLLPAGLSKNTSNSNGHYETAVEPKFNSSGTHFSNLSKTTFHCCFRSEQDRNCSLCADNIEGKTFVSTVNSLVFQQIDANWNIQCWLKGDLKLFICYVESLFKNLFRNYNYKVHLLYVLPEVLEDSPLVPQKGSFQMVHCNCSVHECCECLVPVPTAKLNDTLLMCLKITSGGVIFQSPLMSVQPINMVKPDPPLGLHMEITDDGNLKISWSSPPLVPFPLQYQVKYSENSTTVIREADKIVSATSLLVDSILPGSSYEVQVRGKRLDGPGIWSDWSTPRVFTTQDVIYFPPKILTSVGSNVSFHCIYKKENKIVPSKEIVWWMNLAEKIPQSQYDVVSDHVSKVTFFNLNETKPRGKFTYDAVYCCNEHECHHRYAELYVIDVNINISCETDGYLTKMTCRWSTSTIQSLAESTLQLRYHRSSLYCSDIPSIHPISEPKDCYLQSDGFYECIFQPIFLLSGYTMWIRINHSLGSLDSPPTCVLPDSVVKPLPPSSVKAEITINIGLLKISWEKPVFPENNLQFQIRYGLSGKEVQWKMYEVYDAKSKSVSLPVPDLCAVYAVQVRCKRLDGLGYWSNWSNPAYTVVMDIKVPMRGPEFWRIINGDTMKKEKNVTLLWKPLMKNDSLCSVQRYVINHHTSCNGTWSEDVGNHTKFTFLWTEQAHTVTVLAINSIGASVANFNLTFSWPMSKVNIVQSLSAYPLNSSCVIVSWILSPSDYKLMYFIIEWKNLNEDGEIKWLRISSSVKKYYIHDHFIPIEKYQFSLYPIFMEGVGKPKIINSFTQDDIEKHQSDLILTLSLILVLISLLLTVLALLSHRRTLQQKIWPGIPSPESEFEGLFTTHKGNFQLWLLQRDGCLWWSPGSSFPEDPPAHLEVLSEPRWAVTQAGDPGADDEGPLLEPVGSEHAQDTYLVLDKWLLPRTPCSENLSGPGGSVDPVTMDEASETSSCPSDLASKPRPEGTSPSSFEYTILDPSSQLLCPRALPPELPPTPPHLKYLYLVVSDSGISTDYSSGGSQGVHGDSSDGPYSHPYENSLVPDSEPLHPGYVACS

In order of falling IC50:
1. B1  3.54 nM
2. B12  3.08 nM
3. B5  2.41 nM
4. B6  2.02 nM
5. B9  2 nM
6. B2  0.788 nM
7. B10  0.555 nM
8. B13  0.527 nM
9. B3  0.479 nM
10. B8  0.214 nM
11. B4  0.119 nM
12. B7  0.105 nM
13. B11  0.036 nM

Each binder was assayed against T1, chimeric Leptin (Hu)-EPO (Mu) receptor … (assay: cell-based or functional assay).

In order of falling “EC50 (Obeca Stat 5 functional assay)” value:
1. B5  0.588 nM
2. B14  0.095 nM
3. B2  0.0625 nM
4. B12  0.054 nM
5. B15  0.044 nM
6. B6  0.043 nM
7. B3  0.042 nM
8. B11  0.039 nM
9. B4  0.038 nM
10. B7  0.034 nM
11. B1  0.032 nM
12. B13  0.029 nM
13. B10  0.028 nM
14. B8  0.022 nM
15. B9  0.019 nM
